{"source": "patent US20220064329A1", "about": "(Novo Nordisk, published 2022)", "binders": {"B1": {"name": "mAb0842(OA) (antibody, human IgG4 S228P, kappa)", "heavy": "QVQLQESGPGLVKPSQTLSLTCTVSGYSISSDSAWSWIRQPPGKGLEWIGYIQYSGSTNYNPSLKSRVTISRDTSKNQFSLKLSSVTAADTAVYYCARSVNYYGNSFAVGYWGQGTLVTVSSASTKGPSVFPLAPCSRSTSESTAALGCLVKDYFPEPVTVSWNSGALTSGVHTFPAVLQSSGLYSLSSVVTVPSSSLGTKTYTCNVDHKPSNTKVDKRVESKYGPPCPPCPAPEFLGGPSVFLFPPKPKDTLMISRTPEVTCVVVDVSQEDPEVQFNWYVDGVEVHNAKTKPREEQFNSTYRVVSVLTVLHQDWLNGKEYKCKVSNKGLPSSIEKTISKAKGQPREPQVYTLPPSQEEMTKNQVSLSCAVKGFYPSDIAVEWESNGQPENNYKTTPPVLDSDGSFFLVSRLTVDKSRWQEGNVFSCSVMHEALHNHYTQKSLSLSLGK", "light": "EIVLTQSPATLSLSPGERATLSCRASQGISDYLHWYQQKPGEAPRLLIKYTSQPATGIPARFSGSGSGTDFTLTISSLEPEDFAVYYCQNGHSFPLTFGQGTKLEIKRTVAAPSVFIFPPSDEQLKSGTASVVCLLNNFYPREAKVQWKVDNALQSGNSQESVTEQDSKDSTYSLSSTLTLSKADYEKHKVYACEVTHQGLSSPVTKSFNRGEC", "chain": "not shown", "notes": "also called monovalent humanized 11F2 antibody; one-armed anti-FVII(a) antibody"}}, "experiment_in_all_cases": "SPR, ratio of KD to KD of WT", "key": {"FVII(a) variant N184A": {"target": "T1, FVII(a) variant N184A (human, UniProt P08709 61-466)", "T1 construct": "hFVII alanine variant in cell culture supernatant", "T1 sequence": "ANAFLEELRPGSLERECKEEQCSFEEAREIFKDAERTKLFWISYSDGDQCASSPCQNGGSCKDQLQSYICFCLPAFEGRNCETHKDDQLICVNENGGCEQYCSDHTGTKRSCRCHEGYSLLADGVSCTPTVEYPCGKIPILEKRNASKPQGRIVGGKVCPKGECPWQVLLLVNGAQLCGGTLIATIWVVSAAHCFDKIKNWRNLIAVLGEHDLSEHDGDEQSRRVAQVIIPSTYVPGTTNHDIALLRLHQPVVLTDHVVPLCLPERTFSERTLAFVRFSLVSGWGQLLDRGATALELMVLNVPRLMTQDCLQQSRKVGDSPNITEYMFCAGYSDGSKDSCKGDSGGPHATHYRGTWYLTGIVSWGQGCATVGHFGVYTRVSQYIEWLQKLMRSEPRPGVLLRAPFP", "method": "(§1) The running buffer was prepared by diluting 10-fold the 10×HBS-P buffer (supplied by GE Healthcare) and supplemented with 1 mg/ml BSA and 5 mM CaCl2 to give 10 mM HEPES, 150 mM NaCl, 0.05% v/v Polysorbate 20, pH 7.4, 5 mM CaCl2, 1 mg/ml bovine serum albumin (BSA). […] Regeneration of the chip was achieved using 10 mM HEPES, 150 mM NaCl, 20 mM EDTA, 0.05 v/v Polysorbate 20, pH 7.4. Binding data were analysed according to a 1:1 Kinetic model and steady state analysis using BiaEvaluation 4.1 supplied by the manufacturer (Biacore AB, Uppsala, Sweden). Wherever possible, ka, kd and KD values from 1:1 kinetic fitting model are reported. […] An amino acid residue is considered a hot-spot residue if substitution of that amino acid residue with alanine results in an affinity reduction of ten (10) fold or more relative to the wild type."}, "FVII(a) variant T185A": {"target": "T2, FVII(a) variant T185A (human, UniProt P08709 61-466)", "T2 construct": "hFVII alanine variant in cell culture supernatant", "T2 sequence": "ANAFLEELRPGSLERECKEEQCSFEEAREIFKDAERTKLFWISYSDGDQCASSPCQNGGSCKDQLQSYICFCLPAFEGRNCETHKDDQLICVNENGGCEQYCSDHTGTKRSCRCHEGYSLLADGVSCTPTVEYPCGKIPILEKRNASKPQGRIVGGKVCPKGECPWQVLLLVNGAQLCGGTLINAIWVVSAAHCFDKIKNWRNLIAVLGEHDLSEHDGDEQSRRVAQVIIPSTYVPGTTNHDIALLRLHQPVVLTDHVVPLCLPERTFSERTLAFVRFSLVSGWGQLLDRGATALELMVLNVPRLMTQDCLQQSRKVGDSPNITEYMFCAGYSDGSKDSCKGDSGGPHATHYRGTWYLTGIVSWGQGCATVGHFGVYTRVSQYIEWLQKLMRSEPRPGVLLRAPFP", "method": "as §1"}, "FVII(a) variant E265A": {"target": "T3, FVII(a) variant E265A (human, UniProt P08709 61-466)", "T3 construct": "hFVII alanine variant in cell culture supernatant", "T3 sequence": "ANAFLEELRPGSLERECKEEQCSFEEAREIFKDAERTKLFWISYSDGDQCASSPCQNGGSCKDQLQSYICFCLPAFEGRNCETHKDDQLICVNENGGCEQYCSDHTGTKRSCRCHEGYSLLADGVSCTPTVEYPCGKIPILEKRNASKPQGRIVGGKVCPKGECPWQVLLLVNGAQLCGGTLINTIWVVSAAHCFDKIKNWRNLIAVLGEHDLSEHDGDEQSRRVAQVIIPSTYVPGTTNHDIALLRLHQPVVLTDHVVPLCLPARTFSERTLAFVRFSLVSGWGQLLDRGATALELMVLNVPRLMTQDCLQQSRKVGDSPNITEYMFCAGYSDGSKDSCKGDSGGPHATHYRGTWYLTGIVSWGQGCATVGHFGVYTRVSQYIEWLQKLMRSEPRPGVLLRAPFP", "method": "as §1"}, "FVII(a) variant R392A": {"target": "T4, FVII(a) variant R392A (human, UniProt P08709 61-466)", "T4 construct": "hFVII alanine variant in cell culture supernatant", "T4 sequence": "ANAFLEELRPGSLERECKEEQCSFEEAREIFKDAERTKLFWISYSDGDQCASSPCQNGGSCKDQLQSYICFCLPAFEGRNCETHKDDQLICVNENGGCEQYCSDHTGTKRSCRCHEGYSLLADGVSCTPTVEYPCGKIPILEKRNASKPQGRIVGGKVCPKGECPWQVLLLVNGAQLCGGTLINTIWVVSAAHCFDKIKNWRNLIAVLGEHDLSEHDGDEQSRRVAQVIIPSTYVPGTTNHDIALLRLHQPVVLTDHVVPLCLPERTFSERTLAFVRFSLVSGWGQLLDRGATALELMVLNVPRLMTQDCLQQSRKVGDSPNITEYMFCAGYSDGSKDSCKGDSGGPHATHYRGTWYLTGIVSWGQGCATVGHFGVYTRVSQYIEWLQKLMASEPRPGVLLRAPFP", "method": "as §1"}, "FVII(a) variant L120A": {"target": "T5, FVII(a) variant L120A (human, UniProt P08709 61-466)", "T5 construct": "hFVII alanine variant in cell culture supernatant", "T5 sequence": "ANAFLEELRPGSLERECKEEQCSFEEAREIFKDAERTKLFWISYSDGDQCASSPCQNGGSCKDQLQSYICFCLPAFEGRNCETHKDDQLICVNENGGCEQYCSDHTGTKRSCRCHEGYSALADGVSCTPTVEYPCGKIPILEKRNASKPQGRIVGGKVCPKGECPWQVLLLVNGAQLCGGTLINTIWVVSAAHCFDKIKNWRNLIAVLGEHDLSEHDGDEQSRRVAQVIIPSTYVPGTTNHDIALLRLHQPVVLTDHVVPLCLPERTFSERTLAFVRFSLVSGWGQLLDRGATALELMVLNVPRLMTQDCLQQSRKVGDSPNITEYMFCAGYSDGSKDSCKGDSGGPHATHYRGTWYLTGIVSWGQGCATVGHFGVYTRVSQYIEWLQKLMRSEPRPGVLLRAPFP", "method": "as §1"}}, "data": [{"binder": "B1", "values": [{"measurement": "Fold diff (Variant/WT)", "setting": "FVII(a) variant N184A", "value": 6.3, "unit": "fold"}, {"measurement": "Fold diff (Variant/WT)", "setting": "FVII(a) variant T185A", "value": 3.3, "unit": "fold"}, {"measurement": "Fold diff (Variant/WT)", "setting": "FVII(a) variant E265A", "value": 3.2, "unit": "fold"}, {"measurement": "Fold diff (Variant/WT)", "setting": "FVII(a) variant R392A", "value": 142, "unit": "fold"}, {"measurement": "Fold diff (Variant/WT)", "setting": "FVII(a) variant L120A", "value": 2, "unit": "fold"}]}]}
